In US20070071759A1 one finds NK cell-mediated killing (direct lysis, KY-2 effector cells) and redirected lysis of P815 or J774 cells by KY-2 cells data, which are given here for one substance.

Bounds are passed on as bounds.

The target of this experiment is T1, NKG2D receptor on NK cells freshly isolated from C57BL6 or on KY-2 cells (murine NK cell line) (murine) (UniProt O54709).
T1 sequence (looked up): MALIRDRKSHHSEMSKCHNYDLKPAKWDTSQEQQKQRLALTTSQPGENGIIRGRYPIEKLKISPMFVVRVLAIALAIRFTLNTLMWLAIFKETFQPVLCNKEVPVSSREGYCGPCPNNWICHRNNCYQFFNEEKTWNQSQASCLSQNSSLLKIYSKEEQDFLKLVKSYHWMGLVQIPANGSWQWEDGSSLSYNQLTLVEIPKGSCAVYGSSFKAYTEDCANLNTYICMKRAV
Put plainly: cell-based or functional assay.

On to “anti-HER2 IgG3-CH3-Rae-1β fusion protein (from UniProt P01860 1-377; O08603 29-229)”, for which the NK cell-mediated killing (direct lysis, KY-2 effector cells) was 15 to 59% and the redirected lysis of P815 or J774 cells by KY-2 cells was less than 22%.
